B1: GpH7-A5/GpH7-B3 variant G236_07I/GpL16-k0 (antibody, human IgG1, kappa)
heavy 1: not shown
heavy 2: not shown
light: DIVMTQSPLSLPVTPGEPASISCQASESLVHSNRNTYLHWYLQKPGQSPQLLIYKVSNRFSGVPDRFSGSGSGTDFTLKISRVEAEDVGVYYCSQNTHVPPTFGQGTKVEIERTVAAPSVFIFPPSDEQLKSGTASVVCLLNNFYPREAKVQWKVDNALQSGNSQESVTEQDSKDSTYSLSSTLTLSKADYEKHKVYACEVTHQGLSSPVTKSFNRGEC
notes: heterodimerized IgG1, mutation in one H chain only; also called He Ab
B2: GpH7-A5/GpH7-B3 variant D270_01G/GpL16-k0 (antibody, human IgG1, kappa)
heavy 1: not shown
heavy 2: not shown
light: B1 light
notes: Heterodimerized anti-glypican-3 IgG1 with the alteration in only one H chain; also called He Ab
B3: GpH7-A5/GpH7-B3 variant L235_14T/GpL16-k0 (antibody, human IgG1, kappa)
heavy 1: not shown
heavy 2: not shown
light: B1 light
notes: as for B1
B4: GpH7-A5/GpH7-B3 variant L235_19Q/GpL16-k0 (antibody, human IgG1, kappa)
heavy 1: not shown
heavy 2: not shown
light: B1 light
notes: as for B1
B5: GpH7-A5/GpH7-B3 variant D270_07I/GpL16-k0 (antibody, human IgG1, kappa)
heavy 1: not shown
heavy 2: not shown
light: B1 light
notes: as for B2
B6: GpH7-A5/GpH7-B3 variant L234_14T/GpL16-k0 (antibody, human IgG1, kappa)
heavy 1: not shown
heavy 2: not shown
light: B1 light
notes: as for B1
B7: GpH7-A5/GpH7-B3 variant L234_19Q/GpL16-k0 (antibody, human IgG1, kappa)
heavy 1: not shown
heavy 2: not shown
light: B1 light
notes: as for B1
B8: GpH7-A5/GpH7-B3 variant G236_14T/GpL16-k0 (antibody, human IgG1, kappa)
heavy 1: not shown
heavy 2: not shown
light: B1 light
notes: as for B1
B9: GpH7-A5/GpH7-B3 variant L234_05P/GpL16-k0 (antibody, human IgG1, kappa)
heavy 1: not shown
heavy 2: not shown
light: B1 light
notes: as for B1
B10: GpH7-A5/GpH7-B3 variant G236_13S/GpL16-k0 (antibody, human IgG1, kappa)
heavy 1: not shown
heavy 2: not shown
light: B1 light
notes: as for B1
B11: GpH7-A5/GpH7-B3 variant L234_16H/GpL16-k0 (antibody, human IgG1, kappa)
heavy 1: not shown
heavy 2: not shown
light: B1 light
notes: as for B1
B12: GpH7-A5/GpH7-B3 variant D270_06M/GpL16-k0 (antibody, human IgG1, kappa)
heavy 1: not shown
heavy 2: not shown
light: B1 light
notes: as for B2
B13: GpH7-A5/GpH7-B3 variant L235_18N/GpL16-k0 (antibody, human IgG1, kappa)
heavy 1: not shown
heavy 2: not shown
light: B1 light
notes: as for B1
B14: GpH7-A5/GpH7-B3 variant L235_16H/GpL16-k0 (antibody, human IgG1, kappa)
heavy 1: not shown
heavy 2: not shown
light: B1 light
notes: as for B1
B15: GpH7-A5/GpH7-B3 variant D270_03V/GpL16-k0 (antibody, human IgG1, kappa)
heavy 1: not shown
heavy 2: not shown
light: B1 light
notes: as for B2
B16: GpH7-A5/GpH7-B3 variant D270_12R/GpL16-k0 (antibody, human IgG1, kappa)
heavy 1: not shown
heavy 2: not shown
light: B1 light
notes: as for B2
B17: GpH7-A5/GpH7-B3 variant G236_08L/GpL16-k0 (antibody, human IgG1, kappa)
heavy 1: not shown
heavy 2: not shown
light: B1 light
notes: as for B1
B18: GpH7-A5/GpH7-B3 variant L234_01G/GpL16-k0 (antibody, human IgG1, kappa)
heavy 1: not shown
heavy 2: not shown
light: B1 light
notes: as for B1
B19: GpH7-A5/GpH7-B3 variant D270_11K/GpL16-k0 (antibody, human IgG1, kappa)
heavy 1: not shown
heavy 2: not shown
light: B1 light
notes: as for B2
B20: GpH7-A5/GpH7-B3 variant G236_12R/GpL16-k0 (antibody, human IgG1, kappa)
heavy 1: not shown
heavy 2: not shown
light: B1 light
notes: as for B1
B21: GpH7-A5/GpH7-B3 variant L235_13S/GpL16-k0 (antibody, human IgG1, kappa)
heavy 1: not shown
heavy 2: not shown
light: B1 light
notes: as for B1
B22: GpH7-A5/GpH7-B3 variant D270_10E/GpL16-k0 (antibody, human IgG1, kappa)
heavy 1: not shown
heavy 2: not shown
light: B1 light
notes: as for B2
B23: GpH7-A5/GpH7-B3 variant L234_02A/GpL16-k0 (antibody, human IgG1, kappa)
heavy 1: not shown
heavy 2: not shown
light: B1 light
notes: as for B1
B24: GpH7-A5/GpH7-B3 variant L234_11K/GpL16-k0 (antibody, human IgG1, kappa)
heavy 1: not shown
heavy 2: not shown
light: B1 light
notes: as for B1
B25: GpH7-A5/GpH7-B3 variant L234_12R/GpL16-k0 (antibody, human IgG1, kappa)
heavy 1: not shown
heavy 2: not shown
light: B1 light
notes: as for B1
B26: GpH7-A5/GpH7-B3 variant L235_11K/GpL16-k0 (antibody, human IgG1, kappa)
heavy 1: not shown
heavy 2: not shown
light: B1 light
notes: as for B1
B27: GpH7-A5/GpH7-B3 variant L235_01G/GpL16-k0 (antibody, human IgG1, kappa)
heavy 1: not shown
heavy 2: not shown
light: B1 light
notes: as for B1
B28: GpH7-A5/GpH7-B3 variant D270_08L/GpL16-k0 (antibody, human IgG1, kappa)
heavy 1: not shown
heavy 2: not shown
light: B1 light
notes: as for B2

Tests used:
[1] = biological target: T1, FcγRIIb, extracellular domain with C-terminal His tag (human, UniProt P31994 43-217); assay: SPR (Biacore), antibody captured, FcγR analyte; vs GpH7-A5/GpH7-B3/GpL16-k0 = 100
T1 construct: extracellular domain; made in FreeStyle293 cells; analyte in the Biacore assay; also called 2b; FcgRIIb
T1 sequence (looked up): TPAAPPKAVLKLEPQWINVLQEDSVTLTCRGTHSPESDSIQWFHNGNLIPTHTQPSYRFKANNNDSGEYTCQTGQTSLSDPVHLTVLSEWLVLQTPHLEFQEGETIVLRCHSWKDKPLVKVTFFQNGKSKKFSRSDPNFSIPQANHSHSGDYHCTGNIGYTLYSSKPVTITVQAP

[2] = biological target: T2, FcγRIIa R (FcγRIIa allotype with Arg at position 131), extracellular domain with C-terminal His tag (human, UniProt P12318 34-217); assay: as above
T2 construct: extracellular domain; made in FreeStyle293 cells; analyte in the Biacore assay; also called FcγRIIa type R; 2aR
T2 sequence (looked up): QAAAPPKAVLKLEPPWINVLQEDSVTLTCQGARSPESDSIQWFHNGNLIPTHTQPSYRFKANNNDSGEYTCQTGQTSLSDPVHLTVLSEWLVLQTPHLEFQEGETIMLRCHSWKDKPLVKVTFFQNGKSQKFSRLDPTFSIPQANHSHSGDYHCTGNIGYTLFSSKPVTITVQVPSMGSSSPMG

[3] = biological target: T2, FcγRIIa R (FcγRIIa allotype with Arg at …); assay: SPR (Biacore); He/Con_2aR divided by He/Con_2b, binding to FcγRIIa R against binding to FcγRIIb
Method: (§1) The heterodimerized antibodies He Abs in which one of the H chains was introduced with an alteration were assayed for their binding activities to each activating FcγR and inhibitory FcγR according to the method described in Example 4. […] The activating FcγRs in FIGS. 26, 27, 28, and 29 are FcγRIa, FcγRIIa (R), FcγRIIa (H), and FcγRIIIa, respectively.
(§2) Analysis of interaction between objective antibody and the FcγR was carried out using Biacore T100 (GE Healthcare). HBS-EP+ (GE Healthcare) was used as the running buffer, and the measurement temperature was set to 25° C. Chips produced by immobilizing the antigen peptide by the amine coupling method to a Series S Sencor Chip CM5 (GE Healthcare), or alternatively, chips produced by allowing preliminarily biotinylated antigen peptides to interact with and immobilize onto a Series S Sensor Chip SA (certified) (GE Healthcare) were used. Antibodies of interest were captured onto an antigen peptide-immobilized chip, and allowed to interact to each FcγR diluted with running buffer. To regenerate and repeatedly use the chip, the antibodies captured on the chip were washed off by reacting 10 mM glycine-HCl, pH 1.5.

[4] = biological target: T3, FcγRIIIa extracellular domain with C-terminal His tag (human, UniProt P08637 17-208); assay: SPR (Biacore); He/Con_3a divided by He/Con_2b (FcγRIIIa over FcγRIIb)
T3 construct: extracellular domain; also called FcgRIIIa; 3a; not shown: His tag attached to the C terminus
T3 sequence (P08637 17-208): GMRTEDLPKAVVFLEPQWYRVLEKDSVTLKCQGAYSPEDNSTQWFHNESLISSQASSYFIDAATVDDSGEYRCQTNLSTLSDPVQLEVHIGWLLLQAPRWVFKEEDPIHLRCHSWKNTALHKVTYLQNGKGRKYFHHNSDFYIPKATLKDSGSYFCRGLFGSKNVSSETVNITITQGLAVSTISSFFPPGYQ
Method: as §1, §2

[5] = biological target: T3, FcγRIIIa extracellular domain with …; assay: SPR (Biacore), antibody captured, FcγR as analyte; binding activity relative to control heterodimerized antibody
Method: as §1, §2

[6] = biological target: T4, FcγRIIb extracellular domain with C-terminal His tag (human, UniProt P31994 43-217); assay: as above
T4 construct: extracellular domain; Soluble receptor expressed in FreeStyle293 cells and used as analyte in Biacore; also called FcgRIIb; 2b; not shown: His tag attached to the C terminus
T4 sequence (looked up): T1 sequence (looked up)
Method: as §1, §2

Row | Binder | He/Con_2b [1] | He/Con_2aR [2] | He_2aR/2b (IIaR/IIb) [3] | He_3a/2b [4] | He/Con_3a [5] | He/Con_2b [6]
1 | B1 | 31 relative (HeCon Ab = 100) | 87.1 relative (HeCon Ab = 100) | 2.81 ratio | – | – | –
2 | B2 | – | – | – | 1.26 ratio | 38.5 % of GpH7-A5/GpH7-B3/GpL16-k0 (=100) | 30.5 % of GpH7-A5/GpH7-B3/GpL16-k0 (=100)
3 | B3 | 46.8 relative (HeCon Ab = 100) | 60.7 relative (HeCon Ab = 100) | 1.3 ratio | – | – | –
4 | B4 | 42.6 relative (HeCon Ab = 100) | 56.2 relative (HeCon Ab = 100) | 1.32 ratio | – | – | –
5 | B5 | – | – | – | 1.68 ratio | 69.6 % of GpH7-A5/GpH7-B3/GpL16-k0 (=100) | 41.5 % of GpH7-A5/GpH7-B3/GpL16-k0 (=100)
6 | B6 | 62.5 relative (HeCon Ab = 100) | 77.5 relative (HeCon Ab = 100) | 1.24 ratio | – | – | –
7 | B7 | 60.3 relative (HeCon Ab = 100) | 75.1 relative (HeCon Ab = 100) | 1.24 ratio | – | – | –
8 | B8 | 57.8 relative (HeCon Ab = 100) | 103 relative (HeCon Ab = 100) | 1.78 ratio | – | – | –
9 | B9 | 72.9 relative (HeCon Ab = 100) | 89.6 relative (HeCon Ab = 100) | 1.23 ratio | – | – | –
10 | B10 | 96.7 relative (HeCon Ab = 100) | 136 relative (HeCon Ab = 100) | 1.41 ratio | – | – | –
11 | B11 | 59.4 relative (HeCon Ab = 100) | 71.8 relative (HeCon Ab = 100) | 1.21 ratio | – | – | –
12 | B12 | – | – | – | 1.38 ratio | 66.3 % of GpH7-A5/GpH7-B3/GpL16-k0 (=100) | 48.2 % of GpH7-A5/GpH7-B3/GpL16-k0 (=100)
13 | B13 | 54.9 relative (HeCon Ab = 100) | 66.5 relative (HeCon Ab = 100) | 1.21 ratio | – | – | –
14 | B14 | 76.9 relative (HeCon Ab = 100) | 94.8 relative (HeCon Ab = 100) | 1.23 ratio | – | – | –
15 | B15 | – | – | – | 1.52 ratio | 60.3 % of GpH7-A5/GpH7-B3/GpL16-k0 (=100) | 39.5 % of GpH7-A5/GpH7-B3/GpL16-k0 (=100)
16 | B16 | – | – | – | 1.58 ratio | 28.8 % of GpH7-A5/GpH7-B3/GpL16-k0 (=100) | 18.3 % of GpH7-A5/GpH7-B3/GpL16-k0 (=100)
17 | B17 | 26.8 relative (HeCon Ab = 100) | 65.8 relative (HeCon Ab = 100) | 2.45 ratio | – | – | –
18 | B18 | 50.7 relative (HeCon Ab = 100) | 62.3 relative (HeCon Ab = 100) | 1.23 ratio | – | – | –
19 | B19 | – | – | – | 2.02 ratio | 41 % of GpH7-A5/GpH7-B3/GpL16-k0 (=100) | 20.3 % of GpH7-A5/GpH7-B3/GpL16-k0 (=100)
20 | B20 | 6.8 relative (HeCon Ab = 100) | 24.1 relative (HeCon Ab = 100) | 3.55 ratio | – | – | –
21 | B21 | 48.2 relative (HeCon Ab = 100) | 65.3 relative (HeCon Ab = 100) | 1.36 ratio | – | – | –
22 | B22 | – | – | – | 1.61 ratio | 123 % of GpH7-A5/GpH7-B3/GpL16-k0 (=100) | 76.5 % of GpH7-A5/GpH7-B3/GpL16-k0 (=100)
23 | B23 | 64.9 relative (HeCon Ab = 100) | 79.6 relative (HeCon Ab = 100) | 1.23 ratio | – | – | –
24 | B24 | 16.2 relative (HeCon Ab = 100) | 26.8 relative (HeCon Ab = 100) | 1.66 ratio | – | – | –
25 | B25 | 18.9 relative (HeCon Ab = 100) | 29.9 relative (HeCon Ab = 100) | 1.58 ratio | – | – | –
26 | B26 | 6.3 relative (HeCon Ab = 100) | 10.8 relative (HeCon Ab = 100) | 1.72 ratio | – | – | –
27 | B27 | 35.4 relative (HeCon Ab = 100) | 48.5 relative (HeCon Ab = 100) | 1.37 ratio | – | – | –
28 | B28 | – | – | – | 1.34 ratio | 71.8 % of GpH7-A5/GpH7-B3/GpL16-k0 (=100) | 53.6 % of GpH7-A5/GpH7-B3/GpL16-k0 (=100)
